How the values were obtained:
HCAVSMCs = assay: Flow cytometric intracellular uptake, retention and half-life (2 h treatment); conditions: fluorescence 0 and 5 days after treatment removal; listed as MK2i
Experimental: HCAVSMCs were grown to 80-90% confluence, harvested, and seeded at 20,000 cells/well in a 24 well plate and allowed to adhere overnight in low serum media (DMEM, 1% FBS, and 1% P/S). […] Following treatment, cells were washed with PBS −/−, washed with CellScrub buffer (Genlantis) for 10 minutes at room temperature to remove extracellular polyplexes and/or peptide, washed 2× in PBS −/−, and given fresh complete growth media. Cells were then incubated for an additional 0, 12, 24, 72, or 120 hours. Cells were then washed with PBS −/−, trypsinized, and resuspended in 0.1% Trypan blue in PBS (−/−) for analysis on a FACSCalibur flow cytometer (Becton Dickinson) with BD CellQuest™ Pro software (V 5.2). Data was exported and analyzed with FlowJo software (V 7.6.4). All samples were run in triplicate.

[1] = Cytotoxicity assay (CytoTox-ONE); conditions: human, HCAVSMCs
Experimental: 200 μL of cell suspension (at 10,000 cells/well) were seeded onto 96-well plates to yield an approximate 70% confluence per well. Cells were allowed to adhere to the plate overnight. […] Treatments were subsequently removed and the cells were cultured in fresh complete growth medium for 24 hours. Cells were then washed 2× with PBS +/+ and cell viability was then determined by a CytoTox-ONE Homogenous Membrane Integrity assay (Promega) according to the manufacturer's protocol. Briefly, 100 μL of Ambion KDalert Lysis Buffer was added to each well, and then 100 μL of freshly prepared CytoTox-ONE reagent was added to each well. After 10 minutes of incubation, 50 μL of stop solution was added, and the fluorescence of each well (kλex=560 nm, λem, =590 nm) was determined with a TECAN Infinite M1000 Pro plate reader.

Ab1(Y253F)(h) = Ab1(Y253F)(h) (Homo sapiens, UniProt P00519, Y253F); assay: Kinase Profiling Assay; format: biochemical; conditions: 100 μM
Ab1(h) = Ab1(h) (Homo sapiens, UniProt P00519); assay: Kinase Profiling Assay; format: biochemical; conditions: 100 μM
Plk3(h) = Plk3(h) (Homo sapiens, UniProt Q9H4B4); assay: Kinase Profiling Assay; format: biochemical; conditions: 100 μM
SIK(h) = SIK(h) (Homo sapiens, UniProt P57059); assay: Kinase Profiling Assay; format: biochemical; conditions: 100 μM
SAPK2a(h) = SAPK2a(h) (Homo sapiens, UniProt Q16539); assay: Kinase Profiling Assay; format: biochemical; conditions: 100 μM
EphA3(h) = molecular target: T1, EphA3(h) (Homo sapiens, UniProt P29320); assay: Kinase Profiling Assay; format: biochemical; conditions: 100 μM
T1 sequence (P29320 21-983): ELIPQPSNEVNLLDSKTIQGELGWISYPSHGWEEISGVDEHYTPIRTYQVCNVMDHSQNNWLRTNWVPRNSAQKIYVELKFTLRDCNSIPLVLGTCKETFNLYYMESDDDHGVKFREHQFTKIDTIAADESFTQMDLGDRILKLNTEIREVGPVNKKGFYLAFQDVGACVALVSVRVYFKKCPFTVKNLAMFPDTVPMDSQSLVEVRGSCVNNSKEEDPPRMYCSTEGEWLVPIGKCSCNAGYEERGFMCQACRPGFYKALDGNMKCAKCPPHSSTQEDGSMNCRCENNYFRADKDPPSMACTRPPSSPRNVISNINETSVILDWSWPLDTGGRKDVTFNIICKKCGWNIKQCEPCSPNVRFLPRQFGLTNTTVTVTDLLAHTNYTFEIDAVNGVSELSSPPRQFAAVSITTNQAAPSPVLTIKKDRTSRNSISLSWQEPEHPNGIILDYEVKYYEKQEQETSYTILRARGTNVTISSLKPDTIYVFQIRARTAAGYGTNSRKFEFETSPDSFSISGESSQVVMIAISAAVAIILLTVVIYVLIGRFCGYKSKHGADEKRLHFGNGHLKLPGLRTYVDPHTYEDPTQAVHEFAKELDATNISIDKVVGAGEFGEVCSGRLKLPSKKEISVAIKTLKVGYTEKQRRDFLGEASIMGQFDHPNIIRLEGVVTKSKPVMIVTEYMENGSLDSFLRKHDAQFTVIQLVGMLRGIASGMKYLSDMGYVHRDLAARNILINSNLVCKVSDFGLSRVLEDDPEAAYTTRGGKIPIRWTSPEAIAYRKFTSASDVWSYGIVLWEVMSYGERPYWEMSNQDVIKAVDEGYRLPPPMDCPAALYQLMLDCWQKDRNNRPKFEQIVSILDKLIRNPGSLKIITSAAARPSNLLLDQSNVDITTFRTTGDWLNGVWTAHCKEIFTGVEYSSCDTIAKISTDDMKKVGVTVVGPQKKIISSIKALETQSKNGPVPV

CDK2/cyclinE(h) = CDK2/cyclinE(h) (Homo sapiens, UniProt P24941); assay: Kinase Profiling Assay; format: biochemical; conditions: 100 μM
CHK1(h) = molecular target: T2, CHK1(h) (Homo sapiens, UniProt O14757); assay: Kinase Profiling Assay; format: biochemical; conditions: 100 μM
T2 sequence (O14757 1-476): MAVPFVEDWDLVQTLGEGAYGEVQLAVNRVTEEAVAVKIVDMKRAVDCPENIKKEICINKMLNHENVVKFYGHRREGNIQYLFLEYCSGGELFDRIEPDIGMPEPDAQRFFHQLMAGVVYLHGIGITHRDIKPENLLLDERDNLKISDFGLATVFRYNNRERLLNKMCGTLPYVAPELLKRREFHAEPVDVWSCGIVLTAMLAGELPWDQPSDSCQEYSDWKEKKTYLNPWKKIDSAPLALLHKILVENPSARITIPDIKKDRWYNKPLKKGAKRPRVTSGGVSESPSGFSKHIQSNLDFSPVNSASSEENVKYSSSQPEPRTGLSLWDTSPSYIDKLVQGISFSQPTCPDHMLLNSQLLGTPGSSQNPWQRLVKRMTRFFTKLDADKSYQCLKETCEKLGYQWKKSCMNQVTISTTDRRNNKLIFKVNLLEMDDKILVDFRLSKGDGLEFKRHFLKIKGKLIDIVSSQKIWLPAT

HIPK3(h) = HIPK3(h) (Homo sapiens, UniProt Q9H422); assay: Kinase Profiling Assay; format: biochemical; conditions: 100 μM
CDK2/cyclinA(h) = CDK2/cyclinA(h) (Homo sapiens, UniProt P24941); assay: Kinase Profiling Assay; format: biochemical; conditions: 100 μM
LIMK1(h) = LIMK1(h) (Homo sapiens, UniProt P53667); assay: Kinase Profiling Assay; format: biochemical; conditions: 100 μM
eEF-2K(h) = eEF-2K(h) (Homo sapiens, UniProt O00418); assay: Kinase Profiling Assay; format: biochemical; conditions: 100 μM
CHK2(h) = CHK2(h) (Homo sapiens, UniProt O96017); assay: Kinase Profiling Assay; format: biochemical; conditions: 100 μM
PKBγ(h) = PKBγ(h) (Homo sapiens, UniProt Q9Y243); assay: Kinase Profiling Assay; format: biochemical; conditions: 100 μM
CDK9/cyclin T1(h) = CDK9/cyclin T1(h) (Homo sapiens, UniProt P50750); assay: Kinase Profiling Assay; format: biochemical; conditions: 100 μM
EGFR(T790M)(h) = EGFR(T790M)(h) (Homo sapiens, UniProt P00533, T790M); assay: Kinase Profiling Assay; format: biochemical; conditions: 100 μM
MAPK2(h) = MAPK2(h) (Homo sapiens, UniProt P28482); assay: Kinase Profiling Assay; format: biochemical; conditions: 100 μM
CK2α2(h) = CK2α2(h) (Homo sapiens, UniProt P19784); assay: Kinase Profiling Assay; format: biochemical; conditions: 100 μM
GRK5(h) = GRK5(h) (Homo sapiens, UniProt P34947); assay: Kinase Profiling Assay; format: biochemical; conditions: 100 μM
Fgr(h) = Fgr(h) (Homo sapiens, UniProt P09769); assay: Kinase Profiling Assay; format: biochemical; conditions: 100 μM
PAK3(h) = PAK3(h) (Homo sapiens, UniProt O75914); assay: Kinase Profiling Assay; format: biochemical; conditions: 100 μM
Chain of PAK3(h) (O75914 whole entry): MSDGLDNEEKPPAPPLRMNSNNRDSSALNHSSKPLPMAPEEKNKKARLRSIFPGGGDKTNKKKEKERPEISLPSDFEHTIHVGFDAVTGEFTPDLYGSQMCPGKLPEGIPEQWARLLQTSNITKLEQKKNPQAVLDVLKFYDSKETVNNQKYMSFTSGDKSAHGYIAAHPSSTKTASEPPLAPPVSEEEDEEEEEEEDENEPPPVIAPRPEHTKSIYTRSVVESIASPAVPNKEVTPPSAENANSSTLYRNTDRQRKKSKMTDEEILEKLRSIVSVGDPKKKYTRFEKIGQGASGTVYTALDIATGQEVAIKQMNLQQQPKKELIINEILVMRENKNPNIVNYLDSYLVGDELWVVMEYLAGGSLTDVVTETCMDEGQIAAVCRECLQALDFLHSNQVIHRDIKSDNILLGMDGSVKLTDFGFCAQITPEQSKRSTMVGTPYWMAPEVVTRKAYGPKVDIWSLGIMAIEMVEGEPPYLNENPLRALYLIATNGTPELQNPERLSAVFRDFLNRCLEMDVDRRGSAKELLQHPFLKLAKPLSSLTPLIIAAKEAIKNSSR

Chain of LIMK1(h) (P53667 whole entry): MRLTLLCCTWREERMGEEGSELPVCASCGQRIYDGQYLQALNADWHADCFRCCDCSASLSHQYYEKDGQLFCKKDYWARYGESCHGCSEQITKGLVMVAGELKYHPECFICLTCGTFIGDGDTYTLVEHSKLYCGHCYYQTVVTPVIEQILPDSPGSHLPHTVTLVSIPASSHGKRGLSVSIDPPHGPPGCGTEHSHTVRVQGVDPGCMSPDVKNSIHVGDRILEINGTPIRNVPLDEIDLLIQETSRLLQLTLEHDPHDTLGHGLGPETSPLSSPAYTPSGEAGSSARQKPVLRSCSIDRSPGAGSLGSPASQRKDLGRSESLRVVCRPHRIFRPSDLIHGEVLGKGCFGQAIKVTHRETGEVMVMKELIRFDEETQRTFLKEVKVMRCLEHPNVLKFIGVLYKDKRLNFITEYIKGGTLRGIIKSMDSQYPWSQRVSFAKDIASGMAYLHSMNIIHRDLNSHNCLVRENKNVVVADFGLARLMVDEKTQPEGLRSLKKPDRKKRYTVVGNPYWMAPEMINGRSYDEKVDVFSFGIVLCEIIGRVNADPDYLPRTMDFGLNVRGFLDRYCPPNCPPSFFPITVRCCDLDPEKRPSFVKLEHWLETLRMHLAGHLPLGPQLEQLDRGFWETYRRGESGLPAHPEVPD
Chain of SIK(h) (P57059 whole entry): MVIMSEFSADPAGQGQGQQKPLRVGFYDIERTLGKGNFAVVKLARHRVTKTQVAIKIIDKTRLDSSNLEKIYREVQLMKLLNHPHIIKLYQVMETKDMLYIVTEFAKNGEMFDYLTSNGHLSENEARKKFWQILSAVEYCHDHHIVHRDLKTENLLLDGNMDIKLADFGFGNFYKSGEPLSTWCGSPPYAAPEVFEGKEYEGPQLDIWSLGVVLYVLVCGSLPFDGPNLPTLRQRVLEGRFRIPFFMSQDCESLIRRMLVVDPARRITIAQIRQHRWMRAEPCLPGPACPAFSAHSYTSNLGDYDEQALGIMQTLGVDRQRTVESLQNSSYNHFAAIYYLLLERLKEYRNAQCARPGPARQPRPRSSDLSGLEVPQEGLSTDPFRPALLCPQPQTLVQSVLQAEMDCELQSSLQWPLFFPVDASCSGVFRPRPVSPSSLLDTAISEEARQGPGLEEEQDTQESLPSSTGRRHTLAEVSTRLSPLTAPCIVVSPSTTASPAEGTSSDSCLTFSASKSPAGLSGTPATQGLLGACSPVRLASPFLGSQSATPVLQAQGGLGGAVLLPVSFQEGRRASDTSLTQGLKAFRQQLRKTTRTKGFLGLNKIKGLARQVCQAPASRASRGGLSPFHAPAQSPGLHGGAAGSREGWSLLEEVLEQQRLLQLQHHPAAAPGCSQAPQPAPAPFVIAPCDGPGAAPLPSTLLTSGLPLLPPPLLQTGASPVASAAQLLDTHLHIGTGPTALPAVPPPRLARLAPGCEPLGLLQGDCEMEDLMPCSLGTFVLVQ
Chain of CDK9/cyclin T1(h) (P50750 whole entry): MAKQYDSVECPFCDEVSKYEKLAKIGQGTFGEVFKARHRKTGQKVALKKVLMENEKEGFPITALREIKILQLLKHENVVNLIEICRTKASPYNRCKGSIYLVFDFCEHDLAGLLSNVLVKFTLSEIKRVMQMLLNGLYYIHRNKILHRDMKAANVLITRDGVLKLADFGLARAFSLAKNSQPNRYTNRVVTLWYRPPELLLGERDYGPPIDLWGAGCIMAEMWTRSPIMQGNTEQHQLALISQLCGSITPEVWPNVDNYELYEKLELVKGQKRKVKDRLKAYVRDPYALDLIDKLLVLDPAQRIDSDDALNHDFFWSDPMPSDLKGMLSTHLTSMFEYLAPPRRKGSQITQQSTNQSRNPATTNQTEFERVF
Chain of CDK9/cyclin T1(h) (O60563 whole entry partner): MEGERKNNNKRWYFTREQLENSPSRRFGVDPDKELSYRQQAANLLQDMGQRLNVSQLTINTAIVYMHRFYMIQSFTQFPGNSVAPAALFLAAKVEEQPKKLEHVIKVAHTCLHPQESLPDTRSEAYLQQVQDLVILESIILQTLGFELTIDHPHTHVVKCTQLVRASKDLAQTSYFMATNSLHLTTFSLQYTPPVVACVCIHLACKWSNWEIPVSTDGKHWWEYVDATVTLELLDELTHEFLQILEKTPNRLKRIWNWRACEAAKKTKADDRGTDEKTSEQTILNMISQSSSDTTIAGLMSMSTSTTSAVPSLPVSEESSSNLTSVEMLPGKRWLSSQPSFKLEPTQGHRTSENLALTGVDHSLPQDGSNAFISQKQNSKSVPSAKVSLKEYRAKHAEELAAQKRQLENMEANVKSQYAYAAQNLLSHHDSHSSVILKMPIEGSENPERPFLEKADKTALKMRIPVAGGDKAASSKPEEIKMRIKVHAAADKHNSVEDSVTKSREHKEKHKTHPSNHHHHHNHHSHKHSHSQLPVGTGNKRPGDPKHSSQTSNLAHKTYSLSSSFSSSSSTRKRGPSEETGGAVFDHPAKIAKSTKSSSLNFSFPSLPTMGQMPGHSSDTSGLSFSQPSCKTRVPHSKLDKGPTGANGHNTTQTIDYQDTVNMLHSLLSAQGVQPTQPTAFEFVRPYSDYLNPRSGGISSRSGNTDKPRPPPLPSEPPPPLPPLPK
Chain of CK2α2(h) (P19784 whole entry): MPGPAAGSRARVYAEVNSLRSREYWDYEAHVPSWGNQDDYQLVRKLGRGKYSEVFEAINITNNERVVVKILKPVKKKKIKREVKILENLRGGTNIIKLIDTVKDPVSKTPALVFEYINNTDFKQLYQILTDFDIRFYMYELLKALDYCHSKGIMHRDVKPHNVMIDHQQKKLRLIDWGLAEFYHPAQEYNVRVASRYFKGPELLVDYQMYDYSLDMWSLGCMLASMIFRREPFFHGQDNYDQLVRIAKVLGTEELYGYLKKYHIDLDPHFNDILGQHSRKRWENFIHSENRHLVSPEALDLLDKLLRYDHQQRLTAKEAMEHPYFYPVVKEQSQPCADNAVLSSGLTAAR
Chain of GRK5(h) (P34947 whole entry): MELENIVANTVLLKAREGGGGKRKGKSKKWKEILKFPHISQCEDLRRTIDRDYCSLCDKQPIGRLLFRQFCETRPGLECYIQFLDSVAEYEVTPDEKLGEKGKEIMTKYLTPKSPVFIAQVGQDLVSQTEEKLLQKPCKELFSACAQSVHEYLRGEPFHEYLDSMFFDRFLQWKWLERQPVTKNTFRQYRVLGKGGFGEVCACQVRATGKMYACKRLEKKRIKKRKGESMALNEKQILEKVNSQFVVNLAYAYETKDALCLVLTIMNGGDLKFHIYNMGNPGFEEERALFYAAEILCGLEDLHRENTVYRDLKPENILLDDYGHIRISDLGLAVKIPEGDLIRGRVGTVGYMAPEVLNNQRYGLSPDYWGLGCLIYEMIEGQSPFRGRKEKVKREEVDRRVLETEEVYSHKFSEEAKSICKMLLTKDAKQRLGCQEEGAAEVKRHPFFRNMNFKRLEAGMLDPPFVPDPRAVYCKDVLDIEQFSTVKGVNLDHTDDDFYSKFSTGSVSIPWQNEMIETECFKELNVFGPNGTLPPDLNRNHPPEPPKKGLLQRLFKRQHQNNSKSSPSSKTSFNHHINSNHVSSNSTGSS
Chain of CHK2(h) (O96017 whole entry): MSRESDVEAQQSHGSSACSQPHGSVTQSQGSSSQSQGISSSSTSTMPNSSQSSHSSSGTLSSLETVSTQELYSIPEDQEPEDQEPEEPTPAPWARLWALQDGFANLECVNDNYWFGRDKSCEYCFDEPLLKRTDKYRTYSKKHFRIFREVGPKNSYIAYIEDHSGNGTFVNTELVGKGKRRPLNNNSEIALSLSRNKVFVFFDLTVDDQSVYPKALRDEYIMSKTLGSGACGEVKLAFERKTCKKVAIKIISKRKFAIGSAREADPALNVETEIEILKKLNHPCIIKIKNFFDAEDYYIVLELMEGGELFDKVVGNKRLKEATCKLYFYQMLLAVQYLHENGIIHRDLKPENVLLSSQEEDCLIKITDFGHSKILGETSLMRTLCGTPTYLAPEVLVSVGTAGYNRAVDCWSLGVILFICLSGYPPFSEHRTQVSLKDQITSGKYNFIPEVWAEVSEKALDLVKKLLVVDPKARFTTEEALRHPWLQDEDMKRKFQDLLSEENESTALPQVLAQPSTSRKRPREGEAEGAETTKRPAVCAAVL
Chain of SAPK2a(h) (Q16539 whole entry): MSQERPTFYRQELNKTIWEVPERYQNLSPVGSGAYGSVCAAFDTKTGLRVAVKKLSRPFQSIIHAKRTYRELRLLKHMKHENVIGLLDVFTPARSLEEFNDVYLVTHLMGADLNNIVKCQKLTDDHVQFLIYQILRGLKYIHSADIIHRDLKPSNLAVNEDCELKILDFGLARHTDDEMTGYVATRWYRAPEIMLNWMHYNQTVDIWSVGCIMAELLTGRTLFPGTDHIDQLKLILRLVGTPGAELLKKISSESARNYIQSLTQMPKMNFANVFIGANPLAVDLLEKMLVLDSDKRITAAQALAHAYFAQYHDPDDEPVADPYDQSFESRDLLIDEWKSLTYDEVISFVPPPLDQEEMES

With H-YARAAARQARAKALARQLGVAA-OH [MMI-0100] the “intracellular half-life (t1/2)” value (HCAVSMCs) was 98.4 h and the viability at 2 h, 500 µM [1] was 76%.

In the case of “HRRIKAWLKKIKALARQLGVAA (Mammalian) [MMI-0500]”, the “% activity” value (Ab1(Y253F)(h)) was 29%, the “% activity” value (Ab1(h)) was 16% and the “% activity” value (Plk3(h)) was 122%. The “% activity” value (SIK(h)) was 40%, the “% activity” value (SAPK2a(h)) was 52% and the “% activity” value (EphA3(h)) was 33%. The “% activity” value (CDK2/cyclinE(h)) was 19%, the “% activity” value (CHK1(h)) was 65% and the “% activity” value (HIPK3(h)) was 85%. The “% activity” value (CDK2/cyclinA(h)) was 87%, the “% activity” value (LIMK1(h)) was 87% and the “% activity” value (eEF-2K(h)) was 43%. For the same substance, the “% activity” value (CHK2(h)) was 13%, the “% activity” value (PKBγ(h)) was 20% and the “% activity” value (CDK9/cyclin T1(h)) was 6%. The “% activity” value (EGFR(T790M)(h)) was 70% and the “% activity” value (MAPK2(h)) was 60%.

For “YARAAARQARAKALNRQLGVA (Mammalian) [MMI-0200]”, the “% activity” value (CK2α2(h)) was 88%, the “% activity” value (GRK5(h)) was 135% and the “% activity” value (Fgr(h)) was 71%. For the same substance, the “% activity” value (PAK3(h)) was 50%.

— patent publication US10087225B2, “Formulation of MK2 inhibitor peptides” (MOERAE MATRIX, INC., priority 2015, dated 2018)
